Results published in the supplement of paper PMC10567573.

B1: KRT33B (parent)
chain: PAVDLNQVLNETRNQYEALVETNR
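Note: lentivirally expressed fusions sorted by FACS into six bins by GFP to DsRed ratio, PSI derived from sequencing read proportions per bin multiplied by bin number.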

Variants of: B1
Assay: protein stability index of a GFP-peptide fusion (GPS, HEK-293T) (PSI 1-6); higher = more stable
Conditions: c terminus: a fixed tail appended
For PAVDLNQVLNETRNQYEALVEYNR [T22Y], the protein stability index was 4.57.
Work on PAVDLNQVLNYTRNQYEALVETNR [E11Y] yielded a protein stability index of 3.85.
Work on PAVDLNQVLNDTRNQYEALVETNR [E11D] yielded a protein stability index of 3.77.
Work on PAVDLNQVLNTTRNQYEALVETNR [E11T] yielded a protein stability index of 4.1.
With PAVDLNQVLNGTRNQYEALVETNR [E11G] the protein stability index was 3.85.
With PAVDLNQVRNETRNQYEALVETNR [L9R] the protein stability index was 4.36.
PAVDLNQVENETRNQYEALVETNR [L9E] gave a protein stability index of 4.93.
Work on PAVDLNQVCNETRNQYEALVETNR [L9C] yielded a protein stability index of 4.91.
Variant PAVDLNQVKNETRNQYEALVETNR [L9K] has a protein stability index of 5.09.
For PAVDLNQVHNETRNQYEALVETNR [L9H], the protein stability index was 4.2.
In the case of SAVDLNQVLNETRNQYEALVETNR [P1S], the protein stability index is reported as 4.42.
With EAVDLNQVLNETRNQYEALVETNR [P1E] the protein stability index was 2.98.
LAVDLNQVLNETRNQYEALVETNR [P1L] showed a protein stability index of 3.46.
Work on RAVDLNQVLNETRNQYEALVETNR [P1R] yielded a protein stability index of 3.7.
TAVDLNQVLNETRNQYEALVETNR [P1T] showed a protein stability index of 3.72.
With NAVDLNQVLNETRNQYEALVETNR [P1N] the protein stability index was 4.23.
FAVDLNQVLNETRNQYEALVETNR [P1F] showed a protein stability index of 2.78.
For DAVDLNQVLNETRNQYEALVETNR [P1D], the protein stability index was 4.32.
For PAVDLNQVLNETRNQVEALVETNR [Y16V], the protein stability index was 4.92.
In the case of PAVDLNQVLNETRNQTEALVETNR [Y16T], the protein stability index is reported as 5.15.
With PAVDLNQVLNETRNQKEALVETNR [Y16K] the protein stability index was 4.8.
In the case of PAVDLNQVLNETRNQPEALVETNR [Y16P], the protein stability index is reported as 5.06.
For PAVDLNQVLNETRNQIEALVETNR [Y16I], the protein stability index was 4.17.
For PAVDLNQVLNETRNQQEALVETNR [Y16Q], the protein stability index was 5.29.
PAVDLNQVLNETRNQLEALVETNR [Y16L] showed a protein stability index of 4.37.
Work on PAVDLNQVLNETRNQAEALVETNR [Y16A] yielded a protein stability index of 5.14.
With PAVDFNQVLNETRNQYEALVETNR [L5F] the protein stability index was 3.38.
PAVDHNQVLNETRNQYEALVETNR [L5H] showed a protein stability index of 3.83.
Work on PAVDINQVLNETRNQYEALVETNR [L5I] yielded a protein stability index of 3.47.
Variant PAVHLNQVLNETRNQYEALVETNR [D4H] has a protein stability index of 4.22.
With PAVVLNQVLNETRNQYEALVETNR [D4V] the protein stability index was 3.99.
With PAVKLNQVLNETRNQYEALVETNR [D4K] the protein stability index was 4.
For PAVDLNQWLNETRNQYEALVETNR [V8W], the protein stability index was 3.42.
For PAVDLNQCLNETRNQYEALVETNR [V8C], the protein stability index was 3.71.
Variant PAVDLNQGLNETRNQYEALVETNR [V8G] has a protein stability index of 4.91.
PAVDLNQVLAETRNQYEALVETNR [N10A] gave a protein stability index of 2.98.
PAVDLNQVLMETRNQYEALVETNR [N10M] gave a protein stability index of 2.23.
In the case of PAVDLGQVLNETRNQYEALVETNR [N6G], the protein stability index is reported as 4.3.
PAVDLCQVLNETRNQYEALVETNR [N6C] showed a protein stability index of 2.56.
In the case of PAVDLPQVLNETRNQYEALVETNR [N6P], the protein stability index is reported as 4.33.
With PAVDLLQVLNETRNQYEALVETNR [N6L] the protein stability index was 1.71.
In the case of PAVDLNQVLNETNNQYEALVETNR [R13N], the protein stability index is reported as 5.01.
Work on PAVDLNQVLNETRNQYEELVETNR [A18E] yielded a protein stability index of 3.58.
For PAVDLNQVLNETRNQYEDLVETNR [A18D], the protein stability index was 4.43.
Work on PAVDLNQVLNETRNQYEILVETNR [A18I] yielded a protein stability index of 3.55.
In the case of PAVDLNQVLNETRNQYEHLVETNR [A18H], the protein stability index is reported as 4.09.
PAVDLNQVLNETRNQYEPLVETNR [A18P] gave a protein stability index of 4.28.
PAWDLNQVLNETRNQYEALVETNR [V3W] showed a protein stability index of 4.12.
PARDLNQVLNETRNQYEALVETNR [V3R] gave a protein stability index of 3.4.
Variant PAVDLNQVLNETRNQYEALVETNC [R24C] has a protein stability index of 2.43.
PAVDLNQVLNETRNQYEALVETNF [R24F] showed a protein stability index of 3.
Variant PAVDLNQVLNETRNQYEALVETNQ [R24Q] has a protein stability index of 4.16.
PAVDLNQVLNETRNQYEALVETNH [R24H] gave a protein stability index of 4.24.
With PAVDLNQVLNETRNQYEALVETNY [R24Y] the protein stability index was 2.83.
For PAVDLNQVLNETRNQYEALTETNR [V20T], the protein stability index was 4.95.
For PAVDLNQVLNETRNQYEALYETNR [V20Y], the protein stability index was 4.22.
For PAVDLNQVLNETRNQYEALCETNR [V20C], the protein stability index was 4.06.
PAVDLNQVLNETRNQYEALMETNR [V20M] showed a protein stability index of 2.8.
In the case of PAVDLNQVLNETRNQYEALKETNR [V20K], the protein stability index is reported as 4.24.
In the case of PAVDLNQVLNETRNQYEALAETNR [V20A], the protein stability index is reported as 2.74.
With PCVDLNQVLNETRNQYEALVETNR [A2C] the protein stability index was 2.87.
Work on PLVDLNQVLNETRNQYEALVETNR [A2L] yielded a protein stability index of 3.25.
Work on PIVDLNQVLNETRNQYEALVETNR [A2I] yielded a protein stability index of 2.84.
PPVDLNQVLNETRNQYEALVETNR [A2P] gave a protein stability index of 3.14.
PTVDLNQVLNETRNQYEALVETNR [A2T] showed a protein stability index of 3.52.
PYVDLNQVLNETRNQYEALVETNR [A2Y] showed a protein stability index of 2.02.
Work on PAVDLNQVLNEMRNQYEALVETNR [T12M] yielded a protein stability index of 3.4.
For PAVDLNQVLNEARNQYEALVETNR [T12A], the protein stability index was 2.16.
PAVDLNQVLNETRNYYEALVETNR [Q15Y] showed a protein stability index of 3.23.
Work on PAVDLNQVLNETRNSYEALVETNR [Q15S] yielded a protein stability index of 3.95.
Work on PAVDLNQVLNETRNQYEALVMTNR [E21M] yielded a protein stability index of 3.67.
Work on PAVDLNQVLNETRNQYEALVVTNR [E21V] yielded a protein stability index of 3.54.
For PAVDLNQVLNETRNQYEALVQTNR [E21Q], the protein stability index was 3.95.
Variant PAVDLNQVLNETRNQYEALVFTNR [E21F] has a protein stability index of 3.23.
For PAVDLNQVLNETRNQYWALVETNR [E17W], the protein stability index was 3.54.
Work on PAVDLNQVLNETRNQYIALVETNR [E17I] yielded a protein stability index of 3.13.
With PAVDLNQVLNETRNQYKALVETNR [E17K] the protein stability index was 3.48.
With PAVDLNKVLNETRNQYEALVETNR [Q7K] the protein stability index was 3.91.
PAVDLNIVLNETRNQYEALVETNR [Q7I] showed a protein stability index of 3.55.
In the case of PAVDLNLVLNETRNQYEALVETNR [Q7L], the protein stability index is reported as 4.06.
Variant PAVDLNHVLNETRNQYEALVETNR [Q7H] has a protein stability index of 4.38.
Work on PAVDLNCVLNETRNQYEALVETNR [Q7C] yielded a protein stability index of 3.57.
With PAVDLNEVLNETRNQYEALVETNR [Q7E] the protein stability index was 3.11.
For PAVDLNVVLNETRNQYEALVETNR [Q7V], the protein stability index was 3.86.
In the case of PAVDLNQVLNETRNQYEASVETNR [L19S], the protein stability index is reported as 5.03.
Work on PAVDLNQVLNETRNQYEALVETYR [N23Y] yielded a protein stability index of 3.71.
Work on PAVDLNQVLNETRNQYEALVETLR [N23L] yielded a protein stability index of 3.06.
With PAVDLNQVLNETRNQYEALVETTR [N23T] the protein stability index was 4.46.
For PAVDLNQVLNETRNQYEALVETSR [N23S], the protein stability index was 4.25.
Variant PAVDLNQVLNETRNQYEALVETVR [N23V] has a protein stability index of 3.27.
In the case of PAVDLNQVLNETRDQYEALVETNR [N14D], the protein stability index is reported as 3.59.
PAVDLNQVLNETRWQYEALVETNR [N14W] showed a protein stability index of 2.55.
PAVDLNQVLNETRIQYEALVETNR [N14I] gave a protein stability index of 2.02.
In the case of PAVDLNQVLNETRAQYEALVETNR [N14A], the protein stability index is reported as 2.25.
